Assay: yeast display, Sf9 membrane polyspecificity reagent, FACS + sequencing; frameworks hold sequencing errors
How it was run: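 Using colony PCR, genes from sorted yeast display clones were amplified, then sequenced on MiSeq at 2 × 250 and filtered by CDR length. The clones had been stained with 10% biotinylated, detergent-solubilized Sf9 membrane reagent for 1 hour at 4 °C and sorted by FACS into low and high (top ~1%) gates on anti-HA and streptavidin fluorescence. Polyreactivity labels come from the gate of origin.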

| Sequence | polyreactivity (PSR sort gate) |
| --- | --- |
| QVQLVESGGGLVQAGGSLRLSCAASGRTSVRNAMGWYRQAPGKERELVAAISNGGRTNYADSVKGRFTISRDNAKNTVYLQMNSLKPEDTAVYYCAARGFWLYYHGGVRSGYDYWGQGTQVTVSS | high polyreactivity |
| QVQLVESGGGLVQAGGSLRLSCAASGRTSVRYAMGWYRQAPGKERELVAAISWSGGSTYYADSVKGRFTISRDNAKNTVYLQMNSLKPEDTAVYDCNAQHARGYYYWGQGTQVTVSS | low polyreactivity |
| QVQLVESGGGLVQAGGSLRLSCAASGRTSWVYAMGWYRQAPGKERELVASIRKRTVVYADSVKGRFTISRDNAKNTVYLQMNSLKPEDTAVYYCNADTTFYGYRTYRPENYWGQGTQVTVSS | high polyreactivity |
| QVQLVESGGGLVQAGGSLRLSCAASGRTSYINAMGWYRPAPGKERELVAAITVRAGRTYYADSVKGRFTISRDNANKTVYLQMNSLKPEDTAVYYCAAGVSEGSGDLYYWGQGTQVTVSS | low polyreactivity |
| QVQLVESGGGLVQAGGSLRLSCAASGRTSYRDAMGWYRQAPGKESEFVAAISKSGTSTYYADSVKGRFTISRDNAKNTVYVQMYRLKPEDTAVYYCAAITGVGLRVNSGIGFYYWGQGTQVTVSS | high polyreactivity |
| QVQLVESGGGLVQAGGSLRLSCAASGRTSYWYAMGWYRQAPGKERELVAVISSGGSTYYADSVKGRFTISRDNAKNTVYLQMNSLKPEDTAVYYCNAVVGRWFPYNLSDYWGQGTQVTVSS | low polyreactivity |
| QVQLVESGGGLVQAGGSLRLSCAASGRTVPYNAMGWYRQAPGKESELVAAISGRGGSTYYADSVKGRFTISRDNAKKTVYLQMTSLKPEDTAVYYCAARLPWSYYRTQGYNYWGQGTQVTVSS | high polyreactivity |
| QVQLVESGGGLVQAGGSLRLSCAASGRTVRRYARGWYRQAPGKERELVATIRSGDNTNYADSVKGRFTISRDNAKNTVYLQMNSLKPEDTAVYYCNRSPKSGQVTYLYSVNAHYDYWGQGTQVTVSS | low polyreactivity |
| QVQLVESGGGLVQAGGSLRLSCAASGRTVSYYAMGWYRQAPGKEREFVAAISSSGGSTNYADSVKGRFTISRDNAKNTVYLQMNSLKPEDTAVYYCNAGSGYTGVYRWYYWRYDYWGQGTQVTVSS | low polyreactivity |
| QVQLVESGGGLVQAGGSLRLSCAASGRTYNGYVMGGYRQAPGTEREFVAVINWSGGNTYDADSVKGRFTISRDNAKNTVSLQMNRLKPDDTAVYYCAPRRVRSYAYDYWGQGTQVTVSS | high polyreactivity |
| QVQLVESGGGLVQAGGSLRLSCAASGRTYRSNVMGWYRQAPGKERELVASITWSGGTTYYADSVKVRFTISRDNAKNTVYLQMNSLKPEDTAVYYCNAADERSQGWVGYDHWGQCTQVTVSS | low polyreactivity |
| QVQLVESGGGLVQAGGSLRLSCAASGRTYVYNAMGLYRHAPGKERELVAGITNGGSTNYADSVKGRFTISRDNAKNTVYLQMNSLKPEDTAVYYCNRDVKVLYASSHSPYGYDHWGQGTQVTVSS | low polyreactivity |
| QVQLVESGGGLVQAGGSLRLSCAASGRTYVYNAMGWYRQAPGKERELVAAISSSGGSTRYADSVKGRFTISRDNAKNTVYLQMNSVKPEDTAVYYCNRLRYSNRYDSWGQGTQVTVSS | high polyreactivity |
| QVQLVESGGGLVQAGGSLRLSCAASGRTYYNNAMGWYRQAPGKEREFVAAISASGGRTRYADSVKGRFTISRDNAKNTVYLQMNSLKPEDTAVYYCAAAGTSTLYWGQGTQVTVSS | high polyreactivity |
| QVQLVESGGGLVQAGGSLRLSCAASGRTYYYNAMGWYRQAPGKERELVAVISWDDGSTYYADSVKGRFTISRDKAMNSVYLQLNSLKPEDTAVYYCAAYDYLDYADDYWGQGTQVTVSS | low polyreactivity |
| QVQLVESGGGLVQAGGSLRLSCAASGRWLYAMGWYIQAHGKERELVAAISRSGGSTNYADSVKGRFTISRDNAKNTVYLQMNSLKPEDTAVYYCAATPYSYYTYQPEGEYWGQGTQVTVSS | low polyreactivity |
| QVQLVESGGGLVQAGGSLRLSCAASGRWLYAMGWYIQAPAKERELVAAISRSGGSTNYADSVKGRFTISRDNAKNTVYLQMNSLKPEDTAVYYCATKYNADTRYDYWGQGTQVTVSS | low polyreactivity |
| QVQLVESGGGLVQAGGSLRLSCAASGSAYHYAMGWYSQAPGKERELVASITWRGDTTYYADSVKGRFTISRDNAKITVYLQMNSLKPEDTAVYYCAARKFFRQGGKRYDYWGQGTQVTVSS | high polyreactivity |
| QVQLVESGGGLVQAGGSLRLSCAASGSFFVDDAMGWYRQAPGKERELVATISSDVSTYYADSVKGRFTISRDNAKTTVYIQMNSLKPEDTAVYYCAATVSLHWAYSFSLYLEDDYWGQATQVTVSS | low polyreactivity |
| QVQLVESGGGLVQAGGSLRLSCAASGSIAYNAMGCYRQAPGKERELVASIRASGGRTYYADSVKGRFTISRDNAKNTVYLQMNSLKPEDTAVYYCAAYAYNAIEYGYWGQGTQVTVSS | low polyreactivity |
| QVQLVESGGGLVQAGGSLRLSCAASGSICAYAMGWYRQAPGKERELVASISTSTDITYADSVKGRFTISRDNAKNTVYLQMNSLKPEDTAVYYCAATYWQWWGWYDYWGQGTQVTVSS | high polyreactivity |
| QVQLVESGGGLVQAGGSLRLSCAASGSICDDYAMGWYRQAPGKEWELVAAISSSGTSTYYADSVKGRFTISRDNAMYTVYLQMNSLKPEDTAVYYCSARSAILISGYLMDYWGQGTQVTVSS | low polyreactivity |

| Sequence | polyreactivity (PSR sort gate) |
| --- | --- |
| QVQLVESGGGLVQAGGSLRLSCAASGSICGWYVLGWYRQAPGKEMELVAAITWSAARTYYADSVKGRFTISRDNAKITVYLQMNSLKPEDTAVYYCAADHVSYQPSCRIFDYWGQGTQVTVSS | low polyreactivity |
| QVQLVESGGGLVQAGGSLRLSCAASGSICRSYAMGWYRQAPGKERELVASITRSYGSTYYADSVKGRFTISRDNAKNTVYLQMNSLKPEDTAVYYCNAVVSKSRRFRVDYWGHGTQVTVSS | high polyreactivity |
| QVQLVESGGGLVQAGGSLRLSCAASGSICVRNTMGWYRQAPGKERELVAAISSRGTSTYYADSVKGRFTISRDNAKNTVYLQMNSLKPEDTAVYYCAARVYPYNSWGQGTQVTVSS | high polyreactivity |
| QVQLVESGGGLVQAGGSLRLSCAASGSICYSNARGWYRQAPGKERELVAAISFTGGTTYNADSVKGRFTISRDNAKNTVYLQMNSLKPEDTAVYFCNKLYHHYYGYWGQGTQVTVSS | high polyreactivity |
| QVQLVESGGGLVQAGGSLRLSCAASGSIFAANTMGWYRQAPGKERELVATISWSSGRTRYADSVKGRFTISRDNAKNTVYLQMNSLKPEDTAVYYCAARYYYSRSRLYYYWGQGTQVTVSS | high polyreactivity |
| QVQLVESGGGLVQAGGSLRLSCAASGSIFAAYTMGWYRQAPGKERELVAAISVSTVSTYYADSVKGRFTISRDNAKNTVYLQMYSLKPEDTAVDYCNADATDSYPEKDEHDSWGQGTQVTVSS | low polyreactivity |
| QVQLVESGGGLVQAGGSLRLSCAASGSIFAAYTMGWYRQAPGKERELVATISSGGSTYYADSVKGRFTISRDNAKNTVYLQMNSLKPEDTAVYYCAAVIGNWQYQYYYWGQGTQVTVSS | low polyreactivity |
| QVQLVESGGGLVQAGGSLRLSCAASGSIFADNAMGWYRQAPGKERELVAAITWSGGSTYYADSVKGRFTISRDNAKNTVYLQMNSLKPEDTAVYYCNADDAVEYSYGGGTEFYYWGQGTQVTVSS | low polyreactivity |
| QVQLVESGGGLVQAGGSLRLSCAASGSIFADYAMGWYRQAPGKERELVAAITGSGGRTYYADSVKGRFTISRDNAKNTVYLQMNSLKPEDTAVYYCAVRHRYTRAYWGRDYWGQGTQVTVSS | low polyreactivity |
| QVQLVESGGGLVQAGGSLRLSCAASGSIFADYAMGWYRQAPGKERELVAGISGRGGRTYYADSVKGRFTISRDYAKNTVYLQMNSLKPEDTAVYYCAAKYNYYTWPTRYTATGYYYWGQGTQVTVSS | high polyreactivity |
| QVQLVESGGGLVQAGGSLRLSCAASGSIFADYVMGWYRQAPGKDRELVAAITRRGRTYYADSVKGRFTISRDNAKNTVYLQMNSLKPEDTAVYYCAKVGSGNIDSWGQGTQVTVSS | low polyreactivity |
| QVQLVESGGGLVQAGGSLRLSCAASGSIFADYVMGWYRRAPGKERELVAAITRRGRTYYADSVKGRFTISRDNAKNTVYLQMNSLKPEDTAVYYCAKVASGKIDSWGQGTQVTVSS | low polyreactivity |
| QVQLVESGGGLVQAGGSLRLSCAASGSIFAEYAMGWYRQAPGKERELVAAITTSGSTNYADSVKGRFTISRDNAKNTVYLQMNSLKPEDTAVYYCNALFQQRYLDSSGEYWGQGTQVTVSS | low polyreactivity |
| QVQLVESGGGLVQAGGSLRLSCAASGSIFAFYAMGWYRQAPGKERELVAAITASGGRTYYADSVKGRFTISRDNAKNTVYLQMNSLKPEDTAVYYCAAVGGATYSWNGTFLYDYDYWGQGTQVTVSS | low polyreactivity |
| QVQLVESGGGLVQAGGSLRLSCAASGSIFAFYAMGWYRQAPGKERELVAVISASGGSTYYADSVKGRFISRDNAKNTVSLQMNSLKPEDTAVYYCAAGTSTNSGTVPEEEDYWGQGTQVTVSS | low polyreactivity |
| QVQLVESGGGLVQAGGSLRLSCAASGSIFAGNAMGWYRQAPGKERELVAAITWSGGSTYYADSVKGRFTISRDNAKNTVYLQMNSLKPEDTAVYYCAADPPGYVYGKRYYWGQGTQVTVSS | high polyreactivity |
| QVQLVESGGGLVQAGGSLRLSCAASGSIFAGNVMGWYRQAPGKERELVAAISRRGGRTYYADSVKGRFTISRDNAKNTVYLQMNSLKPEDTAVYYCAARRDPVLGKSDYWGQGTQVTVSS | high polyreactivity |
| QVQLVESGGGLVQAGGSLRLSCAASGSIFAGYAMGWYRQAPGKERELVAAISRSGGRTYYADSVKRRFTISRDNAKNTVNLQMNSLKPEDTAVYYCAAHRRSANDYDYWGQGTQVTVSS | high polyreactivity |
| QVQLVESGGGLVQAGGSLRLSCAASGSIFAHYTMGSYRQAPGKEREFVAAITKSGGRTYYADSVKGRFTISRDNAKNTVYLQMNSLKPEDTAVYYCARRRTIPYTLVDYDSWGQGTQVTVSS | low polyreactivity |
| QVQLVESGGGLVQAGGSLRLSCAASGSIFAINTMGWYRQAPGKERELVAAITSGGSTYYSDSVKGRFTISRDNAKNTVYLQMNSLKPEDTAVYYCAATPIGQHFTVDYWGQGTQVTVSS | low polyreactivity |
| QVQLVESGGGLVQAGGSLRLSCAASGSIFALYAMGWYRQAPGKERELVAAIDWSDGGTYYADSVKGRFTISRDNAKNTVYLQMNSLKPEDTAVYYCAADQYWDGYDFLYDYWGQGTQVTVSS | low polyreactivity |

Reference: the nanobody polyreactivity screen of Harvey et al. (2022)
